Measured values from the supplement of paper PMC9170038.

Assays:
MS2 coat protein [1] = assay: apparent KD of MS2 coat protein, switch OFF state (with FMN for OFF switches, without FMN for ON switches); designed switch direction (-1 OFF switch, 1 ON switch): 1; higher = weaker reporter binding; details: FMN input: 0 or 200 uM; Eterna round: R93 (includes R88 designs)
Method in brief: (§1)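 Designed RNA switches were transcribed on-chip from Illumina sequencing clusters and titrated with SNAP-549-labelled MS2 coat protein in twofold steps from 0.7 or 1.5 nM up to 3 µM. Each step lasted 0.8–1.5 h at first and 10–20 min by the end, in 100 mM Tris-HCl pH 7.5, 80 mM KCl and 4 mM MgCl2, without or with constant ligand. Apparent KD is the median, for each design, of fits to normalised cluster binding curves.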

MS2 coat protein [2] = assay: apparent KD of MS2 coat protein, switch ON state; designed switch direction (-1 OFF switch, 1 ON switch): 1; higher = weaker reporter binding; details: FMN input: 0 or 200 uM; Eterna round: R93 (includes R88 designs)
Method in brief: as §1

Sequence	apparent KD of MS2 coat protein (MS2 coat protein [1]) [nM]	apparent KD of MS2 coat protein (MS2 coat protein [2]) [nM]
AGGAAACAUGAGGAUCACCCAUGUAAAAUAAUGGGAGGAUAUGCGAAAAGAAAAAGAAAAGCAGAAGGCCUAAGAA [62%, Something completely different, 4]	98.6	18.6
AGGAAACAUGAGGAUCACCCAUGUAAAUAUGGGCGAGGAUAUCGAAAGAAAAGAAAGAAACGAGAAGGCGCAAAAG [GU on the end]	295	49.2
AGGAAACAUGAGGAUCACCCAUGUAUAAAAAUGGGAGGAUAUACUAAGACGAAAGUCAUAGUAGAAGGCCUAAAAA [76%, Meechl, 8]	52.6	24.3
AGUAAACAUGAGGAUCACCCAUGUGGUGGCCCAUGAGGAUAUCCAUGCGCAAUGCGCAUAGGAGAAGGCAUAGCCA [Enenerla]	52.6	125
AGUCAACAUGAGGAUCACCCAUGUCUGAGGGCAUGAGGAUAUCUAGAUGGGCAGCAUGAUAGAGAAGGCAUGCGCC [Betea]	199	185
AUAAAACAUGAGGAUCACCCAUGUAGAAAUAUGGGAGGAUAUACAAGGACGAAAGUCAAGGUAGAAGGCCUAAAAG [Mat - Same State 1 - Meechl mod - D119]	126	25
AUAAAACAUGAGGAUCACCCAUGUCAGAAAUGGCAAGGAUAUAGAAAAUAAAAAUAAAAACUAGAAGGUGCAAAAU [Meechl SS1 R2 m1]	198	74.9
AUAAAAGAAAGGCAGGAUAUCCAAAGAAAAACAUGAGGAUCACCCAUGUAAAGAAAGAAAAAGUGGGAGAAGGGCCAAAAGAAUA [73%, More Fisker Same State 2, D3, 3]	27.6	25.3
AUAAAUAAAGAUCAGGAUAUUAUAAAGAUAACAUGAGGAUCACCCAUGUAAAACAAAAUUAUGGGUAAGAAGGGAUCAAAUAAAU [SS2 M 20]	184	46.9
AUAAAUAAAGUUAAGGAUAUUAUAAAGAAAACAUGAGGAUCACCCAUGUAAAAGAAAAUAGUGGGUAAGAAGGUAACAAAUAAAU [SS2 M 18]	42.7	23.1
AUAACACAUGAGGAUCACCCAUGUAGAUACAAGUCAGGAUAUGCAACCUCAUGAAAAAAAGCAGAAGGGACAAUAA [SS 1 Tesla 3]	85.4	27.5
AUAACACAUGAGGAUCACCCAUGUAGAUACCCGUCAGGAUAUGCAAAGAAAAUAAACAAAGCAGAAGGGACAAUAA [SS 1 Tesla 2]	30.4	21.2
AUACAAACGUAUGAGGAUAUCCUUAAUAAAACAUGAGGAUCACCCAUGUGAAUAAAAUAACAAUUGGAGAAGGCAUACGUACAAU [Mat - Same state - Malcolm Mod - D137]	18.9	16.6
AUAUAUAUAAGGUAGGAUAUACUAAAGUAAACAUGAGGAUCACCCAUGUAAAGAAAGAAACUCAUGUAGAAGGACCAUAUAUAUAU [Ex 6 sub 1]	163	24.8
AUAUAUAUAAGGUAGGAUAUUCUAAAGUAAACAUGAGGAUCACCCAUGUAAAGAAAGAAACUCAUGGAGAAGGACCAUAUAUAUA [Modifying Tesla's highscorer (77%) - Adding G segment]	84.8	19.9
CAAAACAAAACAUAGGAUAUCAAAACAAAAACAUGAGGAUCACCCAUGUGGAAACAUGAGAAGGAUGAGAAGGAAAACAAAACAA [Meechl SS2 R2 m7]	49.6	25
CAGAUACAUGAGGAUCACCCAUGUUAGGUAGAACAAGGAUAUCUAGAUAGAUAAAAAUAUAGAGAAGGUGUAUAAC [JR_SS001_Sub207]	24.2	19.8
CAGCGCUGUCGAGAGGAUAUGCGGUGAAGGACAUGAGGAUCACCCAUGUAAGCGAUAGCAUUACGGUAGAAGGCUCUGCAGCUGC [Ceriso]	143	95.7
CAUAGACAUGAGGAUCACCCAUGUAGAAUUAUGGGAGGAUAUACAAAGACGAGAGUCAGAGUAGAAGGCCUAGGAC [salish99-ss1-164]	28.3	18.9
